Data as given in article PMC3140584, “Structure–function relationships of the competence lipoprotein ComL and SSB in meningococcal transformation”.

Molecular target: T1, ComL (Neisseria meningitidis MC58, UniProt Q9K0B1 17-267)
T1 sequence: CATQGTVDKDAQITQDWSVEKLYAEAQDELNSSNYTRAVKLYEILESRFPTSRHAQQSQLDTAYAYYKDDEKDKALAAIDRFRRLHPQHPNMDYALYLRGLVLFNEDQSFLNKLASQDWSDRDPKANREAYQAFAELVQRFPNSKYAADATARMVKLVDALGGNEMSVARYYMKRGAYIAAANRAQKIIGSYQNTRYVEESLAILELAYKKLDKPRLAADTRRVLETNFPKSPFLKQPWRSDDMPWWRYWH
Assay: EMSA; 5 mM Mg2+; EMSA: 4.5 fmol DNA in 10 µl; 10% glycerol, 5 mM MgCl2, 0.02 mg/ml BSA, 1 mM DTT, with half volume of protein in 50 mM NaH2PO4, 300 mM NaCl, pH 8.0, 0.1% DDM (final about 25 mM phosphate, 150 mM NaCl, 0.05% DDM); 37 °C, 15 min; 6% PAGE Tris/glycine/EDTA
Details: protein: recombinant, tags: C-terminal 6xHis, label: 5'-32P

B1: HH10 ssDNA without DUS (ssDNA)
DNA: AACAACAACAAAAGGCCTGTCATCCAACTTCCGGACAGTAAACAACAACAAC
  apparent K (half saturation): 926 nM

B2: HH10/HH11 dsDNA without DUS (dsDNA)
DNA 1: AACAACAACAAAAGGCCTGTCATCCAACTTCCGGACAGTAAACAACAACAAC
DNA 2: GTTGTTGTTGTTTACTGTCCGGAAGTTGGATGACAGGCCTTTTGTTGTTGTT
blunt
  apparent K (half saturation): 467 nM
